Tests used:
[1] = tested on: CD4 T cells from healthy donors; assay: IFN-γ ELISPOT of CD4 T cell lines raised against rFVIII, ovalbumin or KLH (four donors); format: cell-based, human
Description: PBMCs were purified from the whole blood of anonymous healthy donors, who gave informed consent (Etablissement Français du Sang, Rungis, France), using Ficoll-Paque®. Monocyte-derived dendritic cells (DCs) were produced from cells isolated using Percoll gradient by 5 days of culture in AIM-V medium (Invitrogen, Villebon-sur-Yvette, France) supplemented with 1,000 U/ml recombinant human (rh) IL-4 and rhGM-CSF (both from R&D Systems, Lille, France). Mature DCs were produced by two supplementary days of culture in the presence of LPS (1 µg/ml) and R848 (10µg/ml). CD4 T cells were isolated from autologous PBMCs by positive selection using magnetic labeling with anti-CD4 mAbs conjugated to magnetic microbeads followed by magnetic cell sorting, as recommended by the manufacturer (Miltenyi Biotec, Bergisch Gladbach, Germany). Immature DCs were loaded overnight at 37 °C with either 0.2 µM of rFVIII, 0.2 µM of ovalbumin, or 0.25 µM of KLH in 96-well U-bottom plates, while mature DCs were used for FVIII peptides (10 ug/ml). […] 10,000 lymphocytes were collected at day 19 from each T cell line (expanded T cells contained in one well) and their specificity was assessed by using IFN-g ELISPOT.
T cells were incubated with autologous DCs alone (control) or with DCs incubated with rFVIII (0.2 µM), ovalbumin (3 µM), and KLH (1 µM) or PBMCs for FVIII peptides (10 µg/ml) in MultiScreen 96-well plates (Merck Millipore) previously coated with 2.5 µg/mL of anti-human IFN-γ monoclonal antibody (mAb; 1-D1K; Mabtech). […] The spot number was determined by using the ELISPOT Reader System (Autoimmun Diagnostika, Ebinger, Germany). HLA restriction was assessed using monoclonal antibodies (10 μg/ml) specific to HLA-DP (B7/21), HLA-DQ (SPVL3), or HLA-DR (L243).
(§1) Firstly, we aimed to characterize the T cell response to rFVIII in vitro using chicken ovalbumin (Ova) as a non-self-protein benchmark. […] Antigen specificity was assessed using the IFN-γ ELISPOT assay. […] The average number per donor of detected clonotypes was 535 and 918, for a total of 2,143 and 3,672 clonotypes detected for FVIII and Ova. […]

[2] = tested on: CD4 T cells from healthy donors; assay: CD134/CD137 activation-induced marker flow cytometry of pooled specific T cell lines; format: cell-based, human; conditions: four donors, overnight re-stimulation with antigen-loaded DCs, unstimulated control removed
Procedure: Positive antigen-specific T cell lines determined by using the ELISPOT assay were pooled together at day 21, after 24 h of resting in IMDM medium and with the absence of cytokine stimuli. The pooled T cell lines were re-stimulated overnight with autologous DCs alone (control) or with DCs previously loaded with either 0.2 µM of rFVIII, 0.2 µM of ovalbumin, or 0.25 µM of KLH. Following 24 h of stimulation, cells were harvested in cell staining buffer (phosphate-buffered saline/EDTA 2 mM/bovine serum albumin 0.5%) and then stained for CD4 (Vio-Blue, clone REA623, Miltenyi Biotec) and activation-induced markers CD134 (OX-40) (PE anti-human, clone Ber-ACT35, Biolegend) and CD137 (4-1BB) (APC anti-human, clone 4B4-1, Biolegend). The CD4/CD134/CD137-positive population for each condition was sorted by flow cytometry ([…] III; Becton Dickinson, San Jose, CA, USA).
as §1, with “benchmark. Given the low frequency of FVIII-specific T cells in healthy donors, we enriched the CD4 population in vitro before analyzing their specificity and sorting them for TCR CDR3β sequencing (Figure 1A).” for “benchmark.”

B1: ovalbumin: chicken ovalbumin, non-self-protein benchmark (protein, UniProt P01012 2-386, looked up)
Ovalbumin: GSIGAASMEFCFDVFKELKVHHANENIFYCPIAIMSALAMVYLGAKDSTRTQINKVVRFDKLPGFGDSIEAQCGTSVNVHSSLRDILNQITKPNDVYSFSLASRLYAEERYPILPEYLQCVKELYRGGLEPINFQTAADQARELINSWVESQTNGIIRNVLQPSSVDSQTAMVLVNAIVFKGLWEKAFKDEDTQAMPFRVTEQESKPVQMMYQIGLFRVASMASEKMKILELPFASGTMSMLVLLPDEVSGLEQLESIINFEKLTEWTSSNVMEERKIKVYLPRMKMEEKYNLTSVLMAMGITDVFSSSANLSGISSAESLKISQAVHAAHAEINEAGREVVGSAEAGVDAASVSEEFRADHPFLFCIKHIATNAVLFFGRCVSP
positive T cell lines ([1]; Donor #1180, positive/tested T cell lines): 13/24
specific T cell lines ([1]; among 96 T cell lines tested for each antigen, four healthy donors, specific = spot count twofold over control, minimum difference 25 spots): 58
precursor frequency of antigen-specific CD4 T cells ([1]; four healthy donors, estimated with Poisson distribution): 5 cells/M
mean activation percentage (CD134/CD137 double-positive of total CD4) [2]: 1.25%
